{"source": "the DeepSol protein solubility set", "data": [{"assay": "soluble on expression in E. coli; label from the status in PepcDB or PDB records", "values": [{"sequence": "MGSDKIHHHHHHMIGKIEPLGTSTGKILYNSHCQNILDLSVAETMEIFKSSGVILFRDFGVTPKQMKDFSEQFSGKHIIDFTKVSIDSDKYVNFVDGGMDGLIPHCENSCFPFRPDVIWFCCTVPAEQEGETLFWDGIRVWEELSQESKQLFLSKQLKFSYKNVPVDILKGIIGSNANTIDDIKQRLDSVDGVSYQFNDDKTVSVEYTCSSVVNNKYNHQNAFANHFWVYQKRTEEAIFDDGSRASDEVADEIERIFDKLTEKIPWKAGDLVMMDNSRFLHGRGAFTDNRRQVFTTLSNLKF", "soluble on expression in E. coli": "not soluble"}, {"sequence": "MNYQDNSLKSLKLGQKTEYASQYDRTLLQPVPRALNRDGLGITQNQPFTIGADIWTAYEISWLNEKGLPQVAIADIYLDYQSQNLIESKSFKLYLNSFNQSKFADFNAVQQTMQRDLSECAQGDVKVRLNPMAVYDSQKIDHLQGDCIDEQDIEITSYEFNANWLKDCVSDEIVEEKLVSHLLKSNCLITNQPDWGTLHIHYVGKKINQEKLLRYVVSFRQHNEFHEQCVERIFCDLMHYAKPEKLTVYARYTRRGGLDINPFRSNFENLPENLRLARQ", "soluble on expression in E. coli": "soluble"}, {"sequence": "MSLDGEQTTREPVLKAMFLADTHLLGEFLGHWLDKLRREWQMERAFQTALWLLQPEVVFILGDIFDEGKWSTPEAWADDVERFQKMFRHPSHVQLKVVAGNHDIGFHYEMNTYKVERFEKVFSSERLFSWKGINFVMVNSVALNGDGCGICSETEAELIEVSHRLNCSREARGSSRCGPGPLLPTSAPVLLQHYPLYRRSDANCSGEDAAPAEERDIPFKENYDVLSREASQKLLWWLQPRLVLSGHTHSACEVHHGGRVPELSVPSFSWRNRNNPSFIMGSITPTDYTLSKCYLPREEGHHHHHH", "soluble on expression in E. coli": "not soluble"}, {"sequence": "MGILKSLFTLGKSFVAQAEEAIDEAQGVRMLEQHIRDAKAELDKAGKSRVDLLARVKLSHDKLNDLRERKASLETRALAAMSKNVDAALLNEVAEEIARLENAILAEEQVLTNLEASRDAVEKAVTATGQRIAQFEQQLEVVKATEAMQRAQQAVTTSTVGAASNVSTAAESLKRLQTRQAERQARLDAAAQLEKVADGRDLDEKLAQAGIGATNKSNAQGVLARLQRQQGELEHHHHHH", "soluble on expression in E. coli": "not soluble"}, {"sequence": "MKKVSIIIPFKGQTEAELMLPLSSIYNQIGVDLSQLDIHLVNDGGKTIDLSKFDVLADRLEIHYHEIPNGGPGVARQYGIDNSISEYIMFIDADDVLYYVGALWPFYNASNQGHQMIRASYWEQIAGNPYTYTVHGNGDRKAAYGKWYKRSYIEMLGLRFMPDLPIYEDTYFVGLACELATDTCFLEEKVYMWLANPNSITRTVENKFNYQAHIYARENRYWFEMIRKWKPECLVTDFENYLTNMYLKSQKYPPVDEKAWWEEQHKLITSVSDIFSGWTQELQKQVELEHHHHHH", "soluble on expression in E. coli": "not soluble"}, {"sequence": "MNCWMRSPRWPPTTDGSNSSQWVTPCSQMDRSVFSPTPSVPMKLFSTRTLSGTGWAVCKPVGATGVVKGLQRVRLAGLRPAHREDIAIHELVFQRDDDGAIAVCTRRLRLVERLLAKRTDEHRHTGWMGVGHIHRWGAVNECSLAIRMRWLRAPDYVYNTPRCAQLLTSESTKPNGTHGHTMTTFLLATSSVHVTAAAADYLQHRLDSAADHDIVVVAVHDPDAPSRDAGDAVNVARSRLAAFMPATETRDGAPVTEILAAVDEHDPDELLIGPHRGTDDSDGVGSMARDLLTNVDRPVIVLPLP", "soluble on expression in E. coli": "not soluble"}, {"sequence": "MDGTIKEALSVVSDDQSLFDSAYGAAAHLPKADMTASGSPDYGQPHKINPLPPQQEWINQPVRVNVKREYDHMNGSRESPVDCSVSKCSKLVGGGESNPMNYNSYMDEKNGPPPPNMTTNERRVIVPADPTLWTQEHVRQWLEWAIKEYSLMEIDTSFFQNMDGKELCKMNKEDFLRATTLYNTEVLLSHLSYLRESSLLAYNTTSHTDQSSRLSVKEDPSYDSVRRGAWGNNMNSGLNKSPPLGGAQTISKNTEQRPQPDPYQILGPTSSRLANPGSGQIQLWQFLLELLSDSANASCITWEGTNGEFKMTDPDEVARRWGERKSKPNMNYDKLSRALRYYYDKNIMTKVHGKRYAYKFDFHGIAQALQPHPTESSMYKYPSDISYMPSYHAHQQKVNFVPPHPSSMPVTSSSFFGAASQYWTSPTGGIYPNPNVPRHPNTHVPSHLGSYY", "soluble on expression in E. coli": "soluble"}, {"sequence": "MGSDKIHHHHHHMVKDKNDVGPKTVAILGAGGKMGARITRKIHDSAHHLAAIEIAPEGRDRLQGMGIPLTDGDGWIDEADVVVLALPDNIIEKVAEDIVPRVRPGTIVLILDAAAPYAGVMPERADITYFIGHPCHPPLFNDETDPAARTDYHGGIAKQAIVCALMQGPEEHYAIGADICETMWSPVTRTHRVTTEQLAILEPGLSEMVAMPFVETMVHAVDECADRYGIDRQAALDFMIGHLNVEIAMWFGYSPKVPSDAALRLMEFAKDIVVKEDWREALNPAKVKQAAELIAGK", "soluble on expression in E. coli": "not soluble"}, {"sequence": "MGSSHHHHHHSSGRENLYFQGEYDYTDFINYYDKFKVIVYNVLKKLPLNDEIRKPVIEYYLNCIDYNVKKGKHIRGKILVLISSLSSAYSNIKRDSIYLLGWVVEAIQALILIADDIMDSGKFRRGAPCWYIVHGQSNAINDIFFLKMLSLSLIFELSSVFGNDIVMKIQKIYNESIFFTVLGQHLDLSYFDLSKADKISERYFSMVEMKTSRYTFYMPVFFGLTLSEIQVSSAQLNLIEAILYKLGEFYQVHNDVSDYLFNDSNADDICRFKLTWPLQKSFEIADEEMKLKISENYGKNSSLVKDCYNLLKINEHYLEYQRNALDYLIKLVKDITDDSLQKVFIHLIHQISELITNSRSNADSNNSL", "soluble on expression in E. coli": "soluble"}, {"sequence": "VDNARIDLRSKYYVKPKADHPWLTRRTQSHQQVKPPKLPKKKPDPDKKD", "soluble on expression in E. coli": "soluble"}, {"sequence": "MGSDKIHHHHHHMSSKPIAPLHGRTIIMTRAQEQQSEARSQLHALGSNVLDLPALVIGPPDDWQPLDDALADIKTFHWLVFSSANGVRAVEERLQRIGQSLANRPKGLKLAAVGRKTAQYLEHLGAAVDFVPPNFVADSLINHFPVSGFGLKMLLPRVQSGGRTILGEAFRESGAHVIEVAAYESRCPEAIPDDTATALANSNVDAIAFSSGKTAAHTASLLSHRFGSDWLQQLETVKVISIGPQTSLSCEQHFGRVDQEADPHNLEGLISACVKACRSEAETCPPGSR", "soluble on expression in E. coli": "not soluble"}, {"sequence": "MGSDKIHHHHHHLTTVLNASPQRFVNTPAVQRIAQRALRYLQSGFSIHLRGAAGVGKTTLAMHLADLLNQPIILLFGDDEFKTSDLIGNQLGYTRKKVVDNFIHSVIKVEDEVRQHWVDARLTLACKEGFTLVYDEFNRSHPEVNNVLLSVLEERLLVLPTNQHRAEYIRVHPQFRAILTSNPQEYCGVHATQDALMDRVITIDMPTPDELSQQEIVVHKTGIDSEKAEVIVRIVRTFWSRSGSGQGGGLRSCLMIAKICHEHEISVNPGDPSFQDICADILLSRTNQPLIEATRLLEEVLSEFYHRINTQSQPSEIIPNNQNQIVLEQRVPYEHEVYNYLCNSPGRRFSELAVELGIDRSQIVAALKSLREQGVLVQMQGNAESPSISQTVAFDSGHLINK", "soluble on expression in E. coli": "not soluble"}, {"sequence": "MKTLLPTSTAGSLPKPSWLAEPEKLWSPWKLQGEELIDGKRDALRVALQEQELAGVDIVSDGEQTRQHFVTTFIEHLSGVDFENRKTVTIRNRYEASVPTVVGPVSRTKPVFVEDAKFLRQQTKQPIKWALPGPMTMIDTLYDDHYGSREKLAWEFAKILNQEAKELEAAGVDIIQFDEPAFNVFFDDVNEWGIACLERAIEGLKCETAVHICYGYGIKANTDWKQTLGTEWRQYEEVFPKLQQSNIDIISLECHNSRVPIELLELIRGKKVMVGAIDVATNEIETPEEVANTLREALKYVDADKLYPCTNCGMAPLSREVSTAKLNALSAGAEIVRRELSALEHHHHHH", "soluble on expression in E. coli": "not soluble"}, {"sequence": "MSLTHTVHLHLEETDNLALQRLCGSFDNNLDLLAKALDIHISRRFEHFTFNGAFAHAGKRALLKLLETAQTRDLNDGDIRLAAVEAQTEDAGHQEKNHDHAYYFRTKRGSIGGRTPRQNGYIRALLNHDIVFGLGPAGTGKTYLAVAAAVDAMEKHQVERIILVRPAVEAGEKLGFLPGDLTQKVDPYLRPLYDALYDLMGFDRVTKLIEKGLIEIAPLAYMRGRTLNGAYIILDEAQNTTPEQMKMFLTRIGFGAKAVITGDTSQIDLPKNIKSGLKDAREKLHNVEGLYFHTFTGEDVVRHPLVQKIVEAYESAEHDEGGSHHHHHH", "soluble on expression in E. coli": "soluble"}, {"sequence": "MALILTFLGKSGVARTKIAIAAAKLLASQGKRVLLAGLAEPVLPLLLEQTLTPDPQQIAPNLEVVQFQSSVLLERNWEEVKKLEAQYLRTPIIKEVYGQELVVLPGMDSALALNAIREYDASGKYDAIVYDGTGDAFTLRMLGLPESLSWYVRRFRQLFVNSDLGKTIAESPLIQPLISSFFNVNWTADNFAQPTNQVNNFLDKGKEALADPKRVAAFLVTTADPLEVVSVRYLWGSAQQIGLTIGGVIQVSSQTEGDLSAEFTPLEHHHHHH", "soluble on expression in E. coli": "not soluble"}, {"sequence": "RDPEGLLGDKEDLGITCALIPTDVKGVEIGNRHFPLNVPFQNGPTRGKDIFVPIDFIIGGEKMAGQGWRMLVECLSVGRGITLPSNSTGGIKSAAMATGAYSRIRRQFKQPIGHMEGVEEPLARLGGNAYVMDAASNLTVAGIDLGEKPSVISAIVKYHCTHRGQQSIIDAMDIVGGKGICLGPSNFLARGYQGSPIAVTVEGANILTRSMIIFGQGAIRCHPYVLEEMNAAYSEASDAVEKFDKALAGHVSFTMSNLVRSIWFGLSDGLGSSAPTKDATKRYYQQLNR", "soluble on expression in E. coli": "not soluble"}, {"sequence": "MGSDKIHHHHHHMLPTLDGLPFHIAKAQGIYDSLGLDLTILSFNSAYDRDAAFQFKSMDGMITDYPSAVTLQAIHHTDLGIILKHDGYFCFIVSKESGINQLQELKEKNIAVSHNTIIEYATGQLLNKAGISQAEVNKPEIAQLPLRLQMLQYDQIDASFLPDPAASIAMNARHRSLISTQELGIDFTVTAFSREAINEKRREIELLITGYNLGIDYIKMHPQKEWKQVLIEIGVPENLTGLIALPVYRKAERPSADALDKAVTWLKTNNRIPQTYSGYKSLIDTTFIKTNSTTIK", "soluble on expression in E. coli": "not soluble"}, {"sequence": "MLHEIPKSEILKELKRIGAKRVLIQSPEGLRREAEELAGFLEENNIEVFLHGEINYGACDPADREAKLVGCDALIHLGHSYMKLPLEVPTIFVPAFARVSVVEALKENIGEIKKLGRKIIVTTTAQHIHQLKEAKEFLESEGFEVSIGRGDSRISWPGQVLGCNYSVAKVRGEGILFIGSGIFHPLGLAVATRKKVLAIDPYTKAFSWIDPERFIRKRWAQIAKAMDAKKFGVIVSIKKGQLRLAEAKRIVKLLKKHGREARLIVMNDVNYHKLEGFPFEAYVVVACPRVPLDDYGAWRKPVLTPKEVEILLGLREEYEFDEILGGPRESDEPFGISIHSTRLEHHHHHH", "soluble on expression in E. coli": "not soluble"}, {"sequence": "MGSDKIHHHHHHMASIALNNLTYTYPQASTPILDRVNLTLPRQSFILLTGPSGTGKSTLLKLIAGLLPLTPDDGTITFDGQALTASTANQRAQHVAMMFQNPNQQFAMDTVENELIFALENLQVPRDQIPARLLSALDFVGIRNLQSRLLNHLSGGEKQKVALAIIVAMDSDVILLDEPFASVDPTARAVLLDRLVELRNQHGKTIILADHDLSGYEQLVDQVVQIKDQHLQLIDRTTWSELFSAFTEQPQRSWSAPQRVERPCFQLDHVTLQAGDRQLLVPTTRQLLAQHNTLITGPNGSGKSTLFEALVRLHPYTGEIRYEGTPIDKLKRKRYARHVALLFQDAETQFLNITVAEELAQSKRYAYGDYFTADRIQTALVQLNLSGRDEQVIYTLSEGQKKKLQILLMLIMQSPVLLMDEPLKGLDLHSINALVALLQTTQAATKQTLIIISHQLTGLMPLIDYQLHFENHHLDWVVRS", "soluble on expression in E. coli": "not soluble"}]}]}
